# Measurements from patent US20250092426, “CAS ENDONUCLEASES AND RELATED METHODS” (Flagship Pioneering Innovations VII, LLC, published 2025).
# T1: CasEnd-17 (synthetic construct)
# T1 chain: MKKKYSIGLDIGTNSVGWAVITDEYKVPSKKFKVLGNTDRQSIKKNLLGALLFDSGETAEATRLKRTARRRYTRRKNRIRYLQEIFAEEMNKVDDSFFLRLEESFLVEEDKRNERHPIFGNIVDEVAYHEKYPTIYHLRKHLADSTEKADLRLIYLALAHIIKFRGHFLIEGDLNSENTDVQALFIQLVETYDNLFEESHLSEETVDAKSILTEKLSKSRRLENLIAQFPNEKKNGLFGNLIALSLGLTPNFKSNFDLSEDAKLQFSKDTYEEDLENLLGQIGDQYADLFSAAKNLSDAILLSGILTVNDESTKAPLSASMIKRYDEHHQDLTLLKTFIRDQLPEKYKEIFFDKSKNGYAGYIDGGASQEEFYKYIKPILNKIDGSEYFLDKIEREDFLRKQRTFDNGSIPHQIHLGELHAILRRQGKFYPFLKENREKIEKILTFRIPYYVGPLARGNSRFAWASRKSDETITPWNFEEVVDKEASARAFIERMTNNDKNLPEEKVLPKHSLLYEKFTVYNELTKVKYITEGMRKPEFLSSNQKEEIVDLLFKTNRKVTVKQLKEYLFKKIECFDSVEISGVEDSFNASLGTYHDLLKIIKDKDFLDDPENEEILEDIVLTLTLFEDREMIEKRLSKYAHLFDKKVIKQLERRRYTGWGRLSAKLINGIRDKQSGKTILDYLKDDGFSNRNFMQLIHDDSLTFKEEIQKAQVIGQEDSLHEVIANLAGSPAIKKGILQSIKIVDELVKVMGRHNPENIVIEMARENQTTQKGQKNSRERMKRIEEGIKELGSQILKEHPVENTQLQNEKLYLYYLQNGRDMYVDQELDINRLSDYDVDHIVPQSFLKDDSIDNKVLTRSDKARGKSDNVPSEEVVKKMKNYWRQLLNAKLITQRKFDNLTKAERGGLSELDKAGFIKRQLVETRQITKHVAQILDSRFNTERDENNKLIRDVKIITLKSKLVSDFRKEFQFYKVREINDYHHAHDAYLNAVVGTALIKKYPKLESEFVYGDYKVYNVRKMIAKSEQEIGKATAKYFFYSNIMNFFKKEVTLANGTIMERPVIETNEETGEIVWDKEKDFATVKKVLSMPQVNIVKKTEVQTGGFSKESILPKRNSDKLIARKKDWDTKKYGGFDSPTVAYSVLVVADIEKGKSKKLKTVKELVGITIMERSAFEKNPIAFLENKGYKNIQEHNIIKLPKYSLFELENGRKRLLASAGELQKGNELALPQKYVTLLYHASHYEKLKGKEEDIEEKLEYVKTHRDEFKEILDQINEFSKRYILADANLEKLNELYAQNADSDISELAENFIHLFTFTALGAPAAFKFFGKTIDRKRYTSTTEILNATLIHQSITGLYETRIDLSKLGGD
# Target: T1, CasEnd-17
# Experiment: cell_activity; +++; HEK293T; PAM not stated
# Summary of the method: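 BFP-to-GFP conversion via reverse transcriptase fusion with each Cas endonuclease plus template RNA: 200 ng of each plasmid nucleofected into 250,000 BFP-expressing HEK293T cells (program DS-150). Percent GFP+ cells by flow cytometry at day 4 measured editing.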
binder,measurement,value
BFP-to-GFP template RNA ; BFP reporter protospacer (ssRNA ; dsDNA) RNA: GCCGAAGCACUGCACGCCGUGUUUUAGAGCUAGAAAUAGCAAGUUAAAAUAAGGCUAGUCCGUUAUCAACUUGAAAAAGUGGCACCGAGUCGGUGCACCCUGACGUACGGCGUGCAGUGCUU DNA 1: GCCGAAGCACTGCACGCCGT DNA 2: ACGGCGTGCAGTGCTTCGGC,activity,≥ 100 % of reference
